Results on twelve molecules are retold here after patent US6458552B1, “Metalloprotease peptide substrates and methods” (Ortho-McNeil Pharmaceutical, Inc., priority 2000, dated 2002).

Series [1] concerns the target T1, ADAM8 (Homo sapiens, UniProt P78325).
T1 construct: FLAG (C); made in house; host or cells: Sf9 insect cells (baculovirus, pFastBac1)
T1 sequence (P78325 200-400 limits assumed): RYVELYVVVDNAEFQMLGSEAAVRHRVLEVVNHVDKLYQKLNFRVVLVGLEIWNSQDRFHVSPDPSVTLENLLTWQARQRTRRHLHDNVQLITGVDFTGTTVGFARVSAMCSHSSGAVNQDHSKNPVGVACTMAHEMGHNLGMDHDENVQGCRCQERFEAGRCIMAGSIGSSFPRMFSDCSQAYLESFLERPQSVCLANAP
The series is described as follows: FRET peptide substrate screening, ADAM8. As to conditions: FRET peptide 20 uM, room temperature. Also noted: key: from one star (*) to five stars (*****) to indicate weaker to more potent substrates respectively; from one star (*) to five stars (*****) to indicate weaker to more potent substrates respectively; from one star (*) to five stars (*****) to indicate weaker to more potent substrates respectively; from one star (*) to five stars (*****) to indicate weaker to more potent substrates respectively; (—) = no detectable activity. The series is classed as biochemical. From the text:
(§1) Forty nine different peptides were synthesized for testing protease activity. The peptides comprised (i) a collection of substrates for other proteases, as well as (ii) a number of sequences corresponding to membrane proximal cleavage sites of various proteins postulated to be released by metalloproteases (including those published by (Roghani et al., 1999) for ADAM9/MDC9). In order to use the principle of fluorescence resonance energy transfer, or FRET, for the assay, the peptides were labelled at the C-terminus with Dabcyl and at the N-terminus with Edans. Thus cleavage of the peptides can be monitored by the increase in Edans fluorescence at 460 nm (excitation 360 nm) as a result of the decrease in proximity of the Dabcyl quencher. The assay was performed by diluting the ADAM8, ADAM15, MDC-L, or ADAM17 (50 to 100 ng of protein, one to two picomoles) in assay buffer, 10 mM HEPES, pH 7.5, containing 0.001% Brij35. The reaction was initiated by the addition of peptide substrate to a final concentration of 20 uM. The assays were typically run for 20 to 60 minutes at room temperature and the slope of the kinetic increase in fluorescence was determined to calculate the rate of the reaction. If necessary, it was possible to stop the reaction at a certain time by the addition of 1/10th volume of 1M NaOAc (sodium acetate), pH 3.5.
(§2) This peptide was cleaved by all enzymes, and thus was chosen to represent a standard by which to compare the relative activity of the various enzymes for their potential to cleave the various peptide substrates.

A further series has as its target T2, ADAM15 (Homo sapiens, UniProt Q13444).
T2 construct: FLAG (C); made in house; host or cells: Sf9 insect cells (baculovirus, pFastBac1)
T2 sequence (Q13444 213-414 limits assumed): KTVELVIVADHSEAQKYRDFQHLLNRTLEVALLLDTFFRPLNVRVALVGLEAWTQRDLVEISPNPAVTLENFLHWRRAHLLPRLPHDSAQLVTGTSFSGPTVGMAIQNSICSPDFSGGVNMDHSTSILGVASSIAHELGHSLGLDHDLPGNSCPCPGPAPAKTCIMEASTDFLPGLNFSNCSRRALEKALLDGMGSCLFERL
The experiment in a line: FRET peptide substrate screening, ADAM15. The class given is biochemical. Set-up: key: from one star (*) to five stars (*****) to indicate weaker to more potent substrates respectively; from one star (*) to five stars (*****) to indicate weaker to more potent substrates respectively; from one star (*) to five stars (*****) to indicate weaker to more potent substrates respectively; from one star (*) to five stars (*****) to indicate weaker to more potent substrates respectively; (—) = no detectable activity. As to conditions: FRET peptide 20 uM, room temperature.
Excerpt: as §1, §2

Series [2] deals with T1, ADAM8. The series is described as follows: Kinetic analysis of the affinity of ADAM8 for cleavage of 4 peptides. As to conditions: for K0.5 (substrate concentration at which the enzyme activity was 50% of the Vmax): ADAM8, 30 minutes at room temperature, by inspection of the fitted curves; for Cleavage site of ADAM8 within the peptide: carot marks the cleavage site. The series is classed as biochemical. How it is done:
To confirm the screening assay, ADAM8 was further analyzed for its catalytic rate for 4 different peptides. The assay was performed by diluting the ADAM8 in assay buffer, 10 mM HEPES, pH 7.5, containing 0.001% Brij35. […] The assay was run for 30 minutes at room temperature. […] The curves were fitted to the data with the program Grafit (Erithacus Software). […] The Vmax for each substrate was calculated by non-linear fitting of the data. The substrate concentration at which the enzyme activity was 50% of the Vmax (designated “K0.5”) was determined by inspection of the fitted curves. Table 2 also provides the cleavage site of ADAM8 within each peptide, as indicated by a carot within the peptide sequence.

The target of another series is T3, MDC-L (Homo sapiens, UniProt Q9UKQ2).
T3 construct: FLAG (C); made in house; host or cells: Sf9 insect cells (baculovirus, pFastBac1)
T3 sequence (Q9UKQ2 204-399 limits assumed): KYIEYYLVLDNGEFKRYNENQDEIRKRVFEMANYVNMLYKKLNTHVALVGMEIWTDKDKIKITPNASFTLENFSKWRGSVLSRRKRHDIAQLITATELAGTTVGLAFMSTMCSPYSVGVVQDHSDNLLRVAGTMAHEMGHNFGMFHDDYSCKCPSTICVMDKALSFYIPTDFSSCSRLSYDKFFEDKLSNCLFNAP
The series is described as follows: FRET peptide substrate screening, MDC-L. The class given is biochemical. As to conditions: FRET peptide 20 uM, room temperature. Set-up: key: from one star (*) to five stars (*****) to indicate weaker to more potent substrates respectively; from one star (*) to five stars (*****) to indicate weaker to more potent substrates respectively; from one star (*) to five stars (*****) to indicate weaker to more potent substrates respectively; from one star (*) to five stars (*****) to indicate weaker to more potent substrates respectively; (—) = no detectable activity.
Excerpt: as §1, §2

A further series addresses T4, ADAM17 (Homo sapiens, UniProt P78536).
T4 construct: made in house
The series is described as follows: FRET peptide substrate screening, ADAM17. The series is classed as biochemical. Set-up: key: from one star (*) to five stars (*****) to indicate weaker to more potent substrates respectively; from one star (*) to five stars (*****) to indicate weaker to more potent substrates respectively; from one star (*) to five stars (*****) to indicate weaker to more potent substrates respectively; from one star (*) to five stars (*****) to indicate weaker to more potent substrates respectively; (—) = no detectable activity. As to conditions: FRET peptide 20 uM, room temperature.
Excerpt: as §1, §2

Series [3] deals with T5, CatE1 FRET peptide X-KPAKFFRL-Z (not fully specified).
T5 chain: KPAKFFRL

T4 sequence (P78536 215-824, species assumed): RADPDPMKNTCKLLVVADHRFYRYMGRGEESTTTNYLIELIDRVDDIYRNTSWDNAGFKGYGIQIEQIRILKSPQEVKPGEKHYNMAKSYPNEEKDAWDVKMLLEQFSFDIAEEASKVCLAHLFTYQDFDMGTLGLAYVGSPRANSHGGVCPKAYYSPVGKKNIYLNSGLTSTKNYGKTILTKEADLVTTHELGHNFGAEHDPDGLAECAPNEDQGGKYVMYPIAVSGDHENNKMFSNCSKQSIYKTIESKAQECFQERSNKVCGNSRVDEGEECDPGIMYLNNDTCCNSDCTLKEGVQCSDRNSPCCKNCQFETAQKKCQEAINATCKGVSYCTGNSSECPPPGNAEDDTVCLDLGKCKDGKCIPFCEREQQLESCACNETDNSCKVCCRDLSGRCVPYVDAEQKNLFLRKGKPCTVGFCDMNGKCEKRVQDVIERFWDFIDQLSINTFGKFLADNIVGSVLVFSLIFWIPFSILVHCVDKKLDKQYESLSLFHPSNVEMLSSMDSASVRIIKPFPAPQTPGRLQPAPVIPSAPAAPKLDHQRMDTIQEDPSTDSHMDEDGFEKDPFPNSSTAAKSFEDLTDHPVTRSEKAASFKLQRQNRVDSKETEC

In the case of “X-KPAAFFRL-Z ({Edans‑E}-KPAAFFRL-{dabcyl‑K}) [CatE, FRET peptide substrate; X = Edans-E; Z = dabcyl-K]”, the “Relative proteolytic activity ADAM8” value in the series with ADAM8 [1] is “*****”. Further, the “Relative proteolytic activity ADAM15” value with ADAM15 is reported as “*****”. In the series with ADAM8 [2], the “K0.5 (substrate concentration at which the enzyme activity was 50% of the Vmax)” value stood at 5 µM and the “Cleavage site of ADAM8 within the peptide” value (“Cleavage site” below) is recorded as “XKPAAF^FRLZ”. Further, the “Relative proteolytic activity MDC-L” value with MDC-L is listed as “*****”. In addition, in the series with ADAM17, the “Relative proteolytic activity ADAM17” value is on record as “(—)”.
In the case of “Z-RGVVNASSRLAK-X ({dabcyl‑K}-RGVVNASSRLAK-{Edans‑E}) [KAS-1, FRET peptide substrate; X = Edans-E; Z = dabcyl-K]”, the “Relative proteolytic activity ADAM8” value with ADAM8 [1] is listed as “***”. The “Relative proteolytic activity ADAM15” value with ADAM15 is recorded as “***”. In the series with MDC-L, the “Relative proteolytic activity MDC-L” value was “***”. Besides, the “Relative proteolytic activity ADAM17” value with ADAM17 is listed as “(—)”.
As to “X-RVRRALPS-Z ({Edans‑E}-RVRRALPS-{dabcyl‑K}) [AD8P2, FRET peptide substrate; X = Edans-E; Z = dabcyl-K]”, the “Relative proteolytic activity ADAM8” value in the series with ADAM8 [1] is listed as “***”. The “Relative proteolytic activity ADAM15” value in the series with ADAM15 is reported as “***”. The “Relative proteolytic activity MDC-L” value with MDC-L was “***”. Also, in the series with ADAM17, the “Relative proteolytic activity ADAM17” value was “(—)”.
For “X-RTAAVFRP-Z ({Edans‑E}-RTAAVFRP-{dabcyl‑K}) [AD8P, FRET peptide substrate; X = Edans-E; Z = dabcyl-K]”, in the series with ADAM8 [1], the “Relative proteolytic activity ADAM8” value was “*”. Further, the “Relative proteolytic activity ADAM15” value with ADAM15 is “*”. The “Relative proteolytic activity MDC-L” value in the series with MDC-L is listed as “*”. Moreover, the “Relative proteolytic activity ADAM17” value in the series with ADAM17 is recorded as “*****”.
As for “Z-RPLGLAR-X ({dabcyl‑K}-RPLGLAR-{Edans‑E}) [Mat, FRET peptide substrate; X = Edans-E; Z = dabcyl-K]”, the “Relative proteolytic activity ADAM8” value with ADAM8 [1] is on record as “***”. For the same molecule, the “Relative proteolytic activity ADAM15” value with ADAM15 is listed as “***”. In addition, the “Relative proteolytic activity MDC-L” value with MDC-L is on record as “***”. Also, the “Relative proteolytic activity ADAM17” value in the series with ADAM17 is “***”.
For “X-PLAQAVRSSS-Z ({Edans‑E}-PLAQAVRSSS-{dabcyl‑K}) [TNFα, FRET peptide substrate; X = Edans-E; Z = dabcyl-K]”, the “Relative proteolytic activity ADAM8” value in the series with ADAM8 [1] is on record as “***”. Also, the “Relative proteolytic activity ADAM15” value in the series with ADAM15 is “***”. Further, in the series with ADAM8 [2], the “K0.5 (substrate concentration at which the enzyme activity was 50% of the Vmax)” value was 5 µM and the “Cleavage site” value is “XPLAQAVRS^SSZ”. In the series with MDC-L, the “Relative proteolytic activity MDC-L” value is given as “***”. In addition, the “Relative proteolytic activity ADAM17” value with ADAM17 is reported as “***”.
Turning to “X-KPAKFFRL-Z ({Edans‑E}-KPAKFFRL-{dabcyl‑K}) [CatEl, FRET peptide substrate; X = Edans-E; Z = dabcyl-K]”, the “Relative proteolytic activity ADAM8” value in the series with ADAM8 [1] is given as “*****”. Further, the “Relative proteolytic activity ADAM15” value with ADAM15 is recorded as “*****”. In the series with ADAM8 [2], the “K0.5 (substrate concentration at which the enzyme activity was 50% of the Vmax)” value came to 2.5 µM and the “Cleavage site” value is on record as “XKPAKF^FRLZ”. Moreover, in the series with MDC-L, the “Relative proteolytic activity MDC-L” value is reported as “*****”. Besides, the “Relative proteolytic activity ADAM17” value with ADAM17 is listed as “(—)”.
For “Z-LAQAVRSSSR-X ({dabcyl‑K}-LAQAVRSSSR-{Edans‑E}) [TNFα(−4 + 6), FRET peptide substrate; X = Edans-E; Z = dabcyl-K]”, the “Relative proteolytic activity ADAM8” value in the series with ADAM8 [1] is on record as “*”. In addition, in the series with ADAM15, the “Relative proteolytic activity ADAM15” value was “*”. In the series with MDC-L, the “Relative proteolytic activity MDC-L” value was “*”. Also, the “Relative proteolytic activity ADAM17” value in the series with ADAM17 was “***”.
On to “X-PPVAASSLRN-Z ({Edans‑E}-PPVAASSLRN-{dabcyl‑K}) [KL1, FRET peptide substrate; X = Edans-E; Z = dabcyl-K]”, for which the “Relative proteolytic activity ADAM8” value in the series with ADAM8 [1] is given as “***”. In addition, in the series with ADAM15, the “Relative proteolytic activity ADAM15” value is “***”. In addition, the “Relative proteolytic activity MDC-L” value in the series with MDC-L is “***”. The “Relative proteolytic activity ADAM17” value in the series with ADAM17 is given as “(—)”.
Regarding “X-PSAAQTARQHP-Z ({Edans‑E}-PSAAQTARQHP-{dabcyl‑K}) [TNFB2, FRET peptide substrate; X = Edans-E; Z = dabcyl-K]”, in the series with ADAM8 [1], the “Relative proteolytic activity ADAM8” value is listed as “***”. Moreover, the “Relative proteolytic activity ADAM15” value with ADAM15 is reported as “***”. Also, in the series with MDC-L, the “Relative proteolytic activity MDC-L” value is reported as “***”. In addition, the “Relative proteolytic activity ADAM17” value with ADAM17 is “(—)”.
For the molecule “X-RFAQAQQQLP-Z ({Edans‑E}-RFAQAQQQLP-{dabcyl‑K}) [CD27L, FRET peptide substrate; X = Edans-E; Z = dabcyl-K]”, the “Relative proteolytic activity ADAM8” value with ADAM8 [1] is “****”. Besides, the “Relative proteolytic activity ADAM15” value in the series with ADAM15 is “****”. In the series with ADAM8 [2], the “K0.5 (substrate concentration at which the enzyme activity was 50% of the Vmax)” value was 5 µM and the “Cleavage site” value is listed as “XRFAQA^QQQLPZ”. For the same molecule, the “Relative proteolytic activity MDC-L” value with MDC-L is given as “****”. For the same molecule, the “Relative proteolytic activity ADAM17” value with ADAM17 is given as “(—)”.

B1: soluble recombinant human ADAM8 with pro- and protease domains and C-terminal FLAG epitope (inactive precursor form) (protein)
chain: IAPSRPWALMEQYEVVLPWRLPGPRVRRALPSHLGLHPERVSYVLGATGHNFTLHLRKNRDLLGSGYTETYTAANGSEVTEQPRGQDHCFYQGHVEGYPDSAASLSTCAGLRGFFQVGSDLHLIEPLDEGGEGGRHAVYQAEHLLQTAGTCGVSDDSLGSLLGPRTAAVFRPRPGDSLPSRETRYVELYVVVDNAEFQMLGSEAAVRHRVLEVVNHVDKLYQKLNFRVVLVGLEIWNSQDRFHVSPDPSVTLENLLTWQARQRTRRHLHDNVQLITGVDFTGTTVGFARVSAMCSHSSGAVNQDHSKNPVGVACTMAHEMGHNLGMDHDENVQGCRCQERFEAGRCIMAGSIGSSFPRMFSDCSQAYLESFLERPQSVCLANAP
For B1, in series [3], the “fluorometric proteolytic assay / FRET peptide zymography” value is on record as “showed no activity in the fluorometric proteolytic assay”.
